Measured values reported in PMC7804290.
Numbering of substitutions follows the chain as printed.

B1: scaffold 1 (RMP at -3) (structured_RNA)
RNA 1: UUUUCAUGCAUCGCGUAGGCUCAUACCGUAUUGAGACCUUUUGGUCUCAAUACGGUA
RNA 2: UGAGCCUACGCGAUG
modifications: remdesivir monophosphate (RMP, 1'-cyano-4-aza-7,9-dideazaadenosine) at position 13 of strand 2, written as A
B2: scaffold 3 (AMP at -4) (structured_RNA)
RNA 1: B1 RNA 1 with U11C, C12U
RNA 2: UGAGCCUACGCAGUG
B3: scaffold 2 (RMP at -4) (structured_RNA)
RNA 1: B1 RNA 1 with U11C, C12U
RNA 2: UGAGCCUACGCAGUG
modifications: remdesivir monophosphate (RMP, 1'-cyano-4-aza-7,9-dideazaadenosine) at position 12 of strand 2, written as A (oligo R-4)

Tests used:
[1] = molecular target: T1, nsp12 (RdRp catalytic subunit);nsp8;nsp7 (SARS-CoV-2;SARS-CoV-2;SARS-CoV-2, UniProt P0DTD1;P0DTD1;P0DTD1 4393-5324;3943-4140;3860-3942, ||); assay: cryo-EM (complex isolated by SEC); details: protein: recombinant;recombinant;recombinant; copies: 1;2;1
[2] = molecular target: T1, nsp12 (RdRp catalytic subunit);nsp8;nsp7; assay: cryo-EM (complex isolated by SEC); 1 mM Mg2+; AMP control for structure 2; details: protein: recombinant;recombinant;recombinant; copies: 1;2;1

Binder	binding result [1]	binding result [2]
B1	binds	
B2		binds
B3	binds	
